Target: T1, TRIM7-3F (TRIM7 with C-terminal 3×FLAG epitope) (human, UniProt Q9C029 1-511)
T1 construct: also called WT TRIM7-3F; 3×Flag-tagged TRIM7
Assay: co-IP with anti-HA beads from co-transfected 293T cells, Western blot

B1: HA-tagged MenV 2BC (other)
chain: PFTFKPRQRPVFQTQGAAVSSMAQTLLPNDLASKAMGSAFTALLDANEDAQKAMKIIKTLSSLSDAWENVKGTLNNPEFWKQLLSRCVQLIAGMTIAVMHPDPLTLLCLGVLTAAEITSQTSLCEEIAAKFKTIFTTPPPRFPVISLFQQQSPLKQVNDVFSLAKNLDWAVKTVEKVVDWFGTWVAQEEREQTLDQLLQRFPEHAKRISDLRNGMAAYVECKESFDFFEKLYNQAVKEKRTGIAAVCEKFRQKHDHATARCEPVVIVLRGDAGQGKSLSSQIIAQAVSKTIFGRQSVYSLPPDSDFFDGYENQFAAIMDDLGQNPDGSDFTTFCQMVSTTNLLPNMASLERKGTPFTSQLVVATTNLPEFRPVTIAHYPAVERRITFDYSVSAGPVCSKTEAGCKVLDVERAFRPTGDAPLPCFQNNCLFLEKAGLQFRDNRSKEILSLVDVIERAVTRIERKKKVLTAVQTLVAQ
notes: domain: 2BC
- binding result: no binding

From US12104181 (University of Texas, dated 2024)
